Values quoted from earlier work as cited in doi:10.1101/2024.07.26.605324.
Several values for one entry are separate records, joined by “and”; a condition that tells them apart may be missing. Identical values can stand only once.

Target: His27 (position 27, …)
Assay: NMR
Conditions: 243–263 K; membrane-bound tetramer, wild type with both His19 and His27 tetrads

MLEPFQILSICSFILSALHFIAWTIGHLNQIKR [Influenza B virus matrix protein 2 (BM2) proton channel (Influenza B virus)]
pKa: 5.9±0.1 and 5.8±0.1
